Experimental data taken from patent publication US20200369765A1 (INNATE PHARMA, published 2020).
Numbering of substitutions follows the chain as printed.

B1: mAb6 (antibody, human IgG1, V domains shown)
VH: EIQLQQSGPELEKPGASVKISCKASGYSFSDYNMNWVKQSNGKSLEWIGNIDPYYGATSYNQRFKGKATLTVDKSSSTAYMQLKSLTSEDSAVYYCARGDSLFAYWGQGTLVTVSA
VL: DIVMTQSQEFMSTSLGDRVSVTCKASQNVGTNVAWYQQKPGQSPKALLYSASSRYSGVPDRFTGSGSGTDFTLTINNMQSEDLAEYFCQQYITYPYTFGGGTKLEIK
B2: mAb1 (antibody, human IgG1, V domains shown)
VH: DVQLQESGPGLVKPSQSLSLTCTVTGYSITGGFAWNWIRQFPGNTLEWMGYIGYGGSTSYNPSLNSRISITRDTSKNHFFLQFNSVTTDDSATYYCARGDYLFAYWGQGTLVTVSA
VL: DIVMTQSHKFMSTSVGDRVSITCKASQDVNTAVAWYQQKPGQSPKLLIYSASYRYTGVPDRFTGSGSGTDFTFTISSVQAEDLAVYYCQQHYSTPRTFGGGTKLEIK
B3: mAb3 (antibody, human IgG1, V domains shown)
VH: B2 VH with D1E, Q5L, S7T, D89E
VL: DILMTQSPASLSASVGETVSITCRASGNIHNYLAWYLQRQGKSPQLLVYNAKTLADGVPSRFSGTGSGTQFSLKINSLQPEDFGSYYCQHFWSTPRTFGGGTKLEIK
B4: mAb2 (antibody, human IgG1, V domains shown)
VH: B2 VH with D1E, D89E
VL: B2 VL
B5: mAbE (antibody, human IgG1, V domains shown)
VH: DVQLVESGGGLVQPGGSRKLSCAASGFTFSTFGMHWVRQAPEKGLEWVAYISSGSNAIYYADTVKGRFTISRDNPKNTLFLQMTSLRSEDTAMYYCASPGYGAWFAYWGQGTLVTVSA
VL: ENVLTQSPAIMSASPGEKVTMTCRASSSVSSAYLHWYQQKSGASPKLWIYSTSNLASGVPARFSGSGSGTSYSLTISSVEAEDAATYYCQQYSAYPYTFGGGTKLEIK
B6: mAbC (antibody, human IgG1, V domains shown)
VH: QIQLVQSGPELKKPGETVKISCKASGYTFTNYEMNWVKEAPGKGLKWMGWINTYTGESTYADDFKGRFAFSLETSASTVYLQINNLKDEDVATYFCVRDDYGRSYGFAYWGQGTLVTVSA
VL: NIVLTQSPASLTVSLGQRANISCRASESVDSYGNSFMHWYQQKPGQPPKLLIYLASKLESGVPARFSGSGSRTDFTLTIDPVETDDAATYYCHQNNEDPPWTFGGGTKLEIK
B7: mAbF (antibody, human IgG1, V domains shown)
VH: QVQLQQSGPEVVRPGVSVKISCKGSGYTFTDYSMHWVKQSHAKSLEWIGVISTYNGNTNYNQKFKGKATMTVDKSSSTAYMELARLTSEDSAIYYCARRGYYGSSSWFGYWGQGTLVTVSA
VL: DIVMTQSQKFMSTSVGDRVSVTCKASQNVGTDVAWYQQKPGQSPEALIYSASYRYSGVPDRFTGSGSGADFTLTISNVQSEDLAEYFCQQYNSFPYTFGGGTKLEIK
B8: mAbA (antibody, human IgG1, V domains shown)
VH: QVQLQQPGAELVKPGSPVKLSCKASYFTFTSYWMHWVRQRPGQGLEWIGEINPSNGHTNYNEKFESKATLTVDRSSSTAYMQLSSLTSEDSAVFYCANGVESYDFDDALDYWGQGTSVTVSS
VL: DIQMTQTTSSLSASLGDRVTISCRASQDINNYLNWYQQKPDGTIKLLIYYTSRLHSGVPSRFSGSGSGTDYSLTINNLEQEDIATYFCQQGNTLPFTFGGGTKLEIK
B9: mAbB (antibody, human IgG1, V domains shown)
VH: QVQLQQPGAELVKPGASVKLSCKASVYTFTSYWMHWVKQRPGQGLEWIGEINPSNGHTNYNEKFKTKAKLTVDKSSSTAYMQLSSLTSEDSAVYFCANGVETYDFDDAMDYWGQGTSVTVSS
VL: B8 VL with I44V, Y50F, N76S, N92D, L94F
B10: mAbD (antibody, human IgG1, V domains shown)
VH: QIQLVQSGPELKKPGETVKISCKASGYTFTDYSMHWVKQAPGKGLKWMGWIITETGEPTYADDFRGRFAFSLETSANTAYLQINNLKNEDTATYFCARDFDGYWGQGTTLTVSS
VL: DILMTQSPASLSASVGETVTITCRASENIYSYLAWYQQKRGKSPQFLVYNAKTLTEGVPSRFRGSGSGTQFSLKINSLQPEDFGTYYCQHHYGFPWTFGGGTKLEIK

Key:
Siglec-7 Fc protein [1] = molecular target: T1, Siglec-7 Fc protein (human); test: ELISA, blocking: Siglec-7 Fc captured on protein A, mAb dilution series, then biotinylated polymer Sia2 (6'-Sialyllactose-PAA-biotin), streptavidin-peroxidase (top panel)
T1 construct: Produced in CHO cells; also called human Siglec-7 Fc
T1 sequence (chain, as listed by the source limits assumed): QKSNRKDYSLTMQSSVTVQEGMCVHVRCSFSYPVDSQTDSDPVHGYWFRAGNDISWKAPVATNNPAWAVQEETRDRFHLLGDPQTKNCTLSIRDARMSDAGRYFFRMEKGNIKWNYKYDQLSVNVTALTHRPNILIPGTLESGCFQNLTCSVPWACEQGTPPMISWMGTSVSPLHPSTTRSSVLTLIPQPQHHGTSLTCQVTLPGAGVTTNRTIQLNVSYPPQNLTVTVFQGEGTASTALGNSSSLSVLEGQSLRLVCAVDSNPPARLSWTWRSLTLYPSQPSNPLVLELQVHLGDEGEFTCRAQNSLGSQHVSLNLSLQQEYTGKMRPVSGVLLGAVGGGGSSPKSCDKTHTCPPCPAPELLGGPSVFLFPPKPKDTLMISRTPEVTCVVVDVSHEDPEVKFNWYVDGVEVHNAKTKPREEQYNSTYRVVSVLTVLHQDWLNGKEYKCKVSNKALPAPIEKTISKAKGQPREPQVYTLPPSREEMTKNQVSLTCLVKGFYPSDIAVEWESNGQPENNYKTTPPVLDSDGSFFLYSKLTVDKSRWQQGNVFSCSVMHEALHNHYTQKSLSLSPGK
Protocol: (§1) Blocking of the interaction between Siglec-7 and -9 and sialylated ligands by anti Siglec-7/9 antibodies was tested on ELISA assays. Siglec proteins were Siglec-7 human Fc and Siglec-9 Human Fc recombinant proteins, and ligands were biotinylated polymers with sialylated trisaccharides (Neu5Aca2-3Galb1-4GcNAcb-PAA-biotin Glycotech #01-077 referred to as “Sia1” and 6′-Sialyllactose-PAA-biotin Glycotech #01-039 (referred to as “Sia2”). Briefly, Protein A was coated on ELISA plates over night at 4° C. After 3 washes and saturation, Siglec-7 Fc and Siglec-9 Fc were added at 0.8 μg/well at RT for 1H30. After 3 washes, mAbs were added at 20 ug/ml and a series of dilution of 1:5. After 3 washes, biotinylated sialylated polymers were added for 3 hours at room temperature. After 3 washes, Streptavidin-Peroxidase (Beckman) was added at 1:1000. […] The absorbance was read at 450 nm.

Siglec-7 Fc protein [2] = molecular target: T1, Siglec-7 Fc protein; test: ELISA, blocking: Siglec-7 Fc captured on protein A, mAb dilution series, then biotinylated polymer Sia2, streptavidin-peroxidase (bottom panel); partial inhibition
Protocol: as §1

Siglec-9 Fc protein [3] = molecular target: T2, Siglec-9 Fc protein (human); test: ELISA, blocking: Siglec-9 Fc captured on protein A, mAb dilution series, then biotinylated polymer Sia1, streptavidin-peroxidase (top panel); weak partial inhibition
T2 construct: Produced in CHO cells; also called human Siglec-9 Fc
T2 sequence (chain, as listed by the source limits assumed): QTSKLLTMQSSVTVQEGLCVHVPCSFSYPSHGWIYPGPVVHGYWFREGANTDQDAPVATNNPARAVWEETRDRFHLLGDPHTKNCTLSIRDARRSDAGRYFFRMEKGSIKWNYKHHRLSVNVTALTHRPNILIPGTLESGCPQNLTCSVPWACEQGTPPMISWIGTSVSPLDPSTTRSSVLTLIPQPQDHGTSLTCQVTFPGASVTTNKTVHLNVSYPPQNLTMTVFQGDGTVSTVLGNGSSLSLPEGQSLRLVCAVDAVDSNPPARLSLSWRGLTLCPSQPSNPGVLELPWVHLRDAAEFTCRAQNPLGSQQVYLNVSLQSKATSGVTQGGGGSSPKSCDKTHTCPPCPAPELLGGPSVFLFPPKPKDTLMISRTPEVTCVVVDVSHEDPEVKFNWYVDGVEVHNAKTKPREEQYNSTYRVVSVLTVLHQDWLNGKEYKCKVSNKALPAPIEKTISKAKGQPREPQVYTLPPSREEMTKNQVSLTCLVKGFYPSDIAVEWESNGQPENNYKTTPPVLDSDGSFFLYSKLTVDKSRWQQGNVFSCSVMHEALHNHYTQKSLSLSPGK
Protocol: as §1

[4] = molecular target: T3, Human Siglec-9 mutant M10 (human, UniProt Q9Y336 18-463); test: flow cytometry, HEK293T transfectants; '-' indicates full loss of binding
T3 construct: Expressed on HEK293T cells; also called Mutant 10
T3 sequence (Q9Y336 other isoform, or with tags, fused parts or gaps mutant): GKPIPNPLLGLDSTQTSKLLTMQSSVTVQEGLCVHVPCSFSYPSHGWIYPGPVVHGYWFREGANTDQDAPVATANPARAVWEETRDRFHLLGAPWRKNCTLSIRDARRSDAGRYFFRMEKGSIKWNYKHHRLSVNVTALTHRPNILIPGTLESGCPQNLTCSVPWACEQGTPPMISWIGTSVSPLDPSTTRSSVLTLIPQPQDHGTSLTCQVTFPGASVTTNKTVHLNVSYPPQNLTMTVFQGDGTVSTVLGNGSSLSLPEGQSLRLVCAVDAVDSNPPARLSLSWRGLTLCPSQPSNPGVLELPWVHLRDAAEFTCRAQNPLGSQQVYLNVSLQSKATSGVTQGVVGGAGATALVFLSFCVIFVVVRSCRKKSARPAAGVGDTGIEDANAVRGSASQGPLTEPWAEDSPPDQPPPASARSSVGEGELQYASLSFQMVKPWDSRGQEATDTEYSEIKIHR

[5] = molecular target: T4, Human Siglec-9 mutant M11 (human, UniProt Q9Y336 18-463); test: as above
T4 construct: Expressed on HEK293T cells; also called Mutant 11
T4 sequence (Q9Y336 other isoform, or with tags, fused parts or gaps mutant): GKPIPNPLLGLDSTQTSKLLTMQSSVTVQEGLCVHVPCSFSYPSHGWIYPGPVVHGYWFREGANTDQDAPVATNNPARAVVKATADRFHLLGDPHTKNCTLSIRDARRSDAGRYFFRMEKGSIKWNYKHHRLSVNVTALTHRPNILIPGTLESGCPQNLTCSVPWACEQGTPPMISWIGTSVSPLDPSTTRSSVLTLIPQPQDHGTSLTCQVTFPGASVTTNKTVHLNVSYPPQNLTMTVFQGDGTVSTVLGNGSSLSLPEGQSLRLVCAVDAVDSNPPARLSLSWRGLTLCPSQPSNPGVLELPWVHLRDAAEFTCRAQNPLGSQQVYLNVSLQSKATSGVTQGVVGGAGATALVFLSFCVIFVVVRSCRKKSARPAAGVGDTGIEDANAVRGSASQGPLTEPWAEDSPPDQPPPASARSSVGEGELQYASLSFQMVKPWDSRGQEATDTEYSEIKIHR

Human Siglec-9 mutant M9 = molecular target: T5, Human Siglec-9 mutant M9 (human, UniProt Q9Y336 18-463); test: as above
T5 construct: Expressed on HEK293T cells; also called Mutant 9
T5 sequence (Q9Y336 other isoform, or with tags, fused parts or gaps mutant): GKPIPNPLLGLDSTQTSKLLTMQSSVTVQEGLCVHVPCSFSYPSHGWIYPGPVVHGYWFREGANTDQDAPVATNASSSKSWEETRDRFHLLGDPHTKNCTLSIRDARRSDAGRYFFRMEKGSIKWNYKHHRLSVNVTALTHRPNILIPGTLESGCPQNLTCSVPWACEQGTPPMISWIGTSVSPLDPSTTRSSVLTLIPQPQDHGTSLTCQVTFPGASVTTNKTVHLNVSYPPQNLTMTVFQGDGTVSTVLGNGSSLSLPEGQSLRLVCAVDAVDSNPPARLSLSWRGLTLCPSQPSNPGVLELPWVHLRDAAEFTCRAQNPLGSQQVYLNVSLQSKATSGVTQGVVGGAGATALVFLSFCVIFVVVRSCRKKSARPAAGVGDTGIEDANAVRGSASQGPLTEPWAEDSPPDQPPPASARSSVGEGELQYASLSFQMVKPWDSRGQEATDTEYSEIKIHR

Siglec-9 Fc protein [6] = molecular target: T2, Siglec-9 Fc protein; test: ELISA, blocking: Siglec-9 Fc captured on protein A, mAb dilution series, then biotinylated polymer Sia2, streptavidin-peroxidase (bottom panel)
Protocol: as §1

Human Siglec-9 mutant M8 = molecular target: T6, Human Siglec-9 mutant M8 (human, UniProt Q9Y336 18-463); test: flow cytometry, HEK293T transfectants; '-' indicates full loss of binding
T6 construct: Expressed on HEK293T cells; also called Mutant 8
T6 sequence (Q9Y336 other isoform, or with tags, fused parts or gaps mutant): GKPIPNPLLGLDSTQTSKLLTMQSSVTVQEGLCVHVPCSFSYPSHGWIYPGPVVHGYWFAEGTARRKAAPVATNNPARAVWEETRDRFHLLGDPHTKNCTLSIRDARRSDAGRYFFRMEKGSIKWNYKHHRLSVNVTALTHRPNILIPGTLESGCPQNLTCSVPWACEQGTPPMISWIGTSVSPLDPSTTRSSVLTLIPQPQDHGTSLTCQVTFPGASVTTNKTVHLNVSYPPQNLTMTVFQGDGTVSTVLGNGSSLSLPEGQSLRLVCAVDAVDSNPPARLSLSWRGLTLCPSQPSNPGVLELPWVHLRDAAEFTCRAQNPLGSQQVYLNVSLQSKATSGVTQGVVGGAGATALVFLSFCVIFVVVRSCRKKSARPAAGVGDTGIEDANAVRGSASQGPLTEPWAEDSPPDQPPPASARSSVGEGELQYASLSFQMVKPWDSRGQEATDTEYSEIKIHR

Human Siglec-9 = molecular target: T7, Human Siglec-9 (human, UniProt Q9Y336 18-463); test: flow cytometry, CHO Siglec-9 cells, mean n = 2
T7 construct: On transfected CHO cells; also on YTS and KHYG-1 transfectants, primary NK cells and moDC; also called huSiglec-9; CD329
T7 sequence (Q9Y336 18-463): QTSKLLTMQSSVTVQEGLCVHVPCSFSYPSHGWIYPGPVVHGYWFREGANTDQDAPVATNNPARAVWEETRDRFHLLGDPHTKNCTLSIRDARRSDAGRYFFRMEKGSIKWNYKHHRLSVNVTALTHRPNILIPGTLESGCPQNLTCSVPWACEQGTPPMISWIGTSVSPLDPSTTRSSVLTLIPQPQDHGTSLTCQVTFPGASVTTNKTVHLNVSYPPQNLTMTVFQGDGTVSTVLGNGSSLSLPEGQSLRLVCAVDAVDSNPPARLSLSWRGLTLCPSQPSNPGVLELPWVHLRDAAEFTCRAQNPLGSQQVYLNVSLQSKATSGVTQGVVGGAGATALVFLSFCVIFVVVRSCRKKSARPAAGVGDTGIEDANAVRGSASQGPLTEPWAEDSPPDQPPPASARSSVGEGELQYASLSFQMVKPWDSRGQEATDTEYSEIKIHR
Protocol: Binding of humanized antibodies was tested on CHO cells transfected with human Siglec-9, in a titration experiment by flow cytometry. Cells were incubated 90 minutes at 37° C. in Staining Buffer (SB) with primary antibodies at 10 ug/ml and a series of dilution of 1:10. They were washed three times with SB, then incubated 30 minutes with a goat F(ab′)² Anti-human IgG (Fc) PE. EC₅₀ values (μg/ml) for Siglec-9 expressing cells are shown below.

[7] = molecular target: T8, Human Siglec-9 mutant M16 (human, UniProt Q9Y336 18-463); test: flow cytometry, HEK293T transfectants; '-' indicates full loss of binding
T8 construct: Expressed on HEK293T cells; also called Mutant 16
T8 sequence (Q9Y336 other isoform, or with tags, fused parts or gaps mutant): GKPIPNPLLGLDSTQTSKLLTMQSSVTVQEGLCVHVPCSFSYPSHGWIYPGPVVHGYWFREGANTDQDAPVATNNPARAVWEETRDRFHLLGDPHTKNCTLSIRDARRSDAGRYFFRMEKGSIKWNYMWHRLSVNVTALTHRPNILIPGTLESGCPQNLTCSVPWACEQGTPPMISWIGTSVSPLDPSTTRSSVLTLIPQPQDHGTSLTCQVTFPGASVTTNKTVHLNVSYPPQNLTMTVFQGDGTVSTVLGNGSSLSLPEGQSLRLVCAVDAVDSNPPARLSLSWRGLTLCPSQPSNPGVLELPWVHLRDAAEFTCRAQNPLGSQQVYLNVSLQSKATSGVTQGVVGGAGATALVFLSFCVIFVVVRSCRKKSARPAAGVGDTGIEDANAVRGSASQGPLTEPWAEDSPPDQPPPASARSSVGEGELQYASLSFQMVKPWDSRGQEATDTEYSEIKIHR

Human Siglec-9 mutant M6 = molecular target: T9, Human Siglec-9 mutant M6 (human, UniProt Q9Y336 18-463); test: as above
T9 construct: Expressed on HEK293T cells; also called Mutant 6
T9 sequence (Q9Y336 other isoform, or with tags, fused parts or gaps mutant): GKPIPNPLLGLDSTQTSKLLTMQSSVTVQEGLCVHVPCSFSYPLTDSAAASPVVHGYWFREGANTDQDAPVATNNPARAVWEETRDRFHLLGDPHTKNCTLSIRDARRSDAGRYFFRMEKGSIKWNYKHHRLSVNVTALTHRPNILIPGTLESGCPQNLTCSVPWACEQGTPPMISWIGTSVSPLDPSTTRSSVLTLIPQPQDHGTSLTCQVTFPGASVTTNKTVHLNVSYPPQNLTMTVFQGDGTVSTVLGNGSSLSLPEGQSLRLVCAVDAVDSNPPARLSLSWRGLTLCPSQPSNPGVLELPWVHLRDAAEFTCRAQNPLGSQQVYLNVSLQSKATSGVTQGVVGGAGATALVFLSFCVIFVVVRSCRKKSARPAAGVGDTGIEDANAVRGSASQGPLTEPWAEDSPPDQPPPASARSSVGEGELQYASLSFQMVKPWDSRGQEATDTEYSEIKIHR

| Binder | binding result [4] | binding result [5] | binding result (Human Siglec-9 mutant M9) | other results |
| --- | --- | --- | --- | --- |
| B1 | – | – | – | binding result (Siglec-7 Fc protein [1]): binds |
| B2 | no binding | no binding | no binding | IC50 (read off the curve) (Siglec-7 Fc protein [2]): ~4 µg/mL; IC50 (read off the curve) (Siglec-9 Fc protein [3]): ~2 µg/mL; IC50 (read off the curve) (Siglec-9 Fc protein [6]): ~1 µg/mL |
| B3 | no binding | no binding | no binding | – |
| B4 | no binding | no binding | no binding | IC50 (read off the curve) (Siglec-7 Fc protein [2]): ~4 µg/mL; IC50 (read off the curve) (Siglec-9 Fc protein [3]): ~2 µg/mL; IC50 (read off the curve) (Siglec-9 Fc protein [6]): ~1 µg/mL |
| B5 | no binding | no binding | no binding | – |
| B6 | – | – | – | binding result (Human Siglec-9 mutant M8): no binding |
| B7 | no binding | no binding | no binding | – |
| B8 | – | – | – | EC50 (Human Siglec-9): 0.03 µg/mL; binding result [7]: no binding |
| B9 | – | – | – | binding result [7]: no binding |
| B10 | – | – | – | EC50 (Human Siglec-9): 0.036 µg/mL; binding result (Human Siglec-9 mutant M6): no binding |
